Experimental data from the nanobody polyreactivity screen of Harvey et al. (2022).

Test: yeast display, Sf9 membrane polyspecificity reagent, FACS + sequencing; frameworks hold sequencing errors
Outline: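 After 36–48 hours of galactose induction, yeast (Saccharomyces cerevisiae BJ5465) displaying a synthetic nanobody library were stained at 4 °C for 1 hour with 10% biotinylated, detergent-solubilized Sf9 membrane reagent. Streptavidin microbeads enriched the stained cells before FACS sorting into low and high (top ~1%) gates on anti-HA and streptavidin fluorescence. Each clone's polyreactivity label reflects its gate of origin.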

Row | Sequence | polyreactivity (PSR sort gate)
1 | QVQLVESGGGLVQAGGSLRLSCAASGLIFGSYAMGWYRQAPGKERELVAAINKSGGSTYYADSVKGRFTISRDNAKNTVYLQMNSLKPEDTAVYYCAKGRSKYYQPGQRDYWGQGTQVTVSS | high polyreactivity
2 | QVQLVESGGGLVQAGGSLRLSCAASGFTFRRYAMGWYRQAPGKERELVASISWTGGSTHYADSVKGRFTISRDNAKNTVYLQMNSLKPEDSAVYYSNTVWYYLRSFNIDHYYDYWGQGTQVTVSS | high polyreactivity
3 | QVQLVESGGGLVQAGGSLRLSCAASGSTFWYNGMGWYRQAPGKERELVAAINWSGDSTYYADSVKGRFTISRDNAKNTVYLQMNSLKPEDTAVFYCAGGYYTYSRRSSFFVAYGYWGLGTQVTVSS | low polyreactivity
4 | QVQLVESGGGLVKAGGSLRLSCAASGSIFAFYAMGWYRPAPGKERELVAAINSGGGRTYYEDSVKGRFTISRDNAKYTVYLQMNSLKPEDTAVYYCAARTIHGSNRSYYWGQGTQVTVSS | high polyreactivity
5 | QVQLVESGGGLVQAGGSLRLSCAASGSIFYNNAMGWYRQAPGKERELVATISDGGGSTYYADSVKGRFTISRDNAKNTVYLQMNSLKPEDTAVYYCAAPYYWGQGTQVTVSS | low polyreactivity
6 | QVQLVESGGGLVQAGGSLRLSGAASGSIFSHYAMGWYRQAPGKAWELVASISTADSTNYADSVKGRFTISRDNAKNTVYFQMYSLKPEDTAVYYCAAEYQSYAQYAWGYDYCGQGTQVTVSS | low polyreactivity
7 | QVQLVESGGGLVQAGGSLRLSCAASGLTVKYYAMGWFRQAPGKERELAAIISFGGGSTYYADSVKGRFTISRDNAKNTVYLQMNSLKPEDTAVYYCNARLLFKYGYWGQGTQVTVSS | high polyreactivity
8 | QVQLVESGGGLVQAGGSLRLSCAASGRIFVQYAMGWYRQAPGKERELVAAISGSGGRTYYADSVKGRFTISRDNAKNTVYLQMNSLKPEDTAVYYCNTARLHGQTQGGDYWGQGTQVTVSS | high polyreactivity
9 | QVQLVESGGGLVQAGGSLRLRCAASGSTFSIYAMGWYRQATGKQRELVAAISSSGGSTYYADSVKGRFTISRDTAKNTGYLQMNSLKPEDTAFYYCNKRKYHVRYDYWGQGTQVTVSS | low polyreactivity
10 | QVQLVESGGGLVQAGGSLRLSCAASGFIFGGYAMGWYRQAPGKERELVAAITWSGGNTYYADSVKGRFTISRDNAKNTVYLQMNSLKPEDTAVYYCAADYWTKYGYWGLGTQVTVSS | low polyreactivity
11 | QVQLVESGGGLVQAGGSLRLTCAASGSIFSYYAMGWYRQAPGKERELVADISFTGDSTFYADSVKGRFTISRDNAKNTVYLQMNSLKPEDTADYYCAKDEIMAVYFEYDYWGQGTQVTVSS | low polyreactivity
12 | QVQLVESGGGLVQAGGSLRLSCAASGRTFDLNVMGWSRQAPGKERELVAASSFSGGSTYYADSVKGRFTLSRDNAKNTVYLQMNSLKPEDTAVYYCAADGYVRPPEMDYWGQGTQVTVSS | high polyreactivity
13 | QVQLVESGGGLVQAGGSLRLSCAASGFIFGTYVMGLYRTAPGKERELLAAISESGGRTYYADSVKGRFTISRDNAKNTVYIQMNSLIPEDTAVYYCAKVRHIRFHYYYGYQSYYYWGQGTQVTVSS | high polyreactivity
14 | QVQLVESGGGLVQAGGSLRLSCAASGSTFRTYAMGWYRQAPGKVRELVAAITNGGSTYADSVKGRFTISRDNAKNTVYLQMNSLKPEDTAVYYCNADFGFGYVSLLYEYWGQGTQVTVSS | low polyreactivity
15 | QVQLVESGGGLVQAGGSLRLSCAASGFIFRYAMGWYRQAPGKERELVAAISSSGGSTNYADSVKGRFTISRDNAKNTVYLQMNSLKPEDTAVYYCAARDGRQPRGYRLVTYYAPMYYWGQGTQVTVSS | high polyreactivity
16 | QVQLVESGGGLVQAGGSLRLSCAASGYIFAVYAMGWYIQAPGKEREFVAVITWRGGSTYYADSVKGRFTISRDNAKNTVYLHMNSLKPEDTAVYYCAADVYAQYDYWGQGTQVTVSS | high polyreactivity
17 | QVQHEESGGGLVQAGGSLRLSCAASGSIFTPTPKGCYRQAPGKERELVAAISSSSDRTYYADSVKGRFTISRDNAKNTVYLEMNSLKPEDTAVYFCAAYAQKRYYWGQGTQVNVSS | high polyreactivity
18 | QDQLLESGGGLVQAGGSLLLSCAASGSTFFDYAMGWYRQAPGKERELVAVISDGGTTTYADSVKGRFTISRDNAKNTVYLQMNSLKPEDTAVYYCAAENQDGLLVILGGYGYWGQGTQVTVSS | low polyreactivity
19 | QVQLVESGGGLVQAGGSLRLSCAASGSIFNIYAMGWYRQAPGKERELVAAIRWTGGSTYYADSVKGRFTISRDNAKNTVYLQMHSLKPEDTALYYSAARTSRGGHYYWGHGTQVTVSS | high polyreactivity
20 | QVQLVESGGGLVQAGGSLRLSCAAAGRSFGRNAMGWYRQAPGKERELVAAISTSSGSTYYADSVKGRFTISRDNAKNTVYLQMNSLKPEDTAGYYCAARDDSYRRYEYGYWGQGTQVTVSS | high polyreactivity
21 | QVQLVESGGGLVQAGGRLRLSCAASGGLLDIYVMGWYRQAPGKERELVAAITTRGGSTFYADSVKGRFTISRDNAKNTVYLQMNSLIPEDTAVYYCNKRLLVSRSSAQAYGYWGQGTQVTVSS | high polyreactivity
22 | QVQLVESGGGLVQAGGSLRLSCAASGFTVGYNAMGWYRQAPGKERELVAAIDKRGDSTYADSVKGRFTISRDNAKNTVYLQMNSLKPEDTAVYYCAADSDSKYNYGFLWDTYESWGQGTQVTVSS | low polyreactivity

Row | Sequence | polyreactivity (PSR sort gate)
23 | QVQLVESGGGLVQAGGSLRLTCAASGRIFGWYAMGWYRQAPGKEREFVAAITVTGGSTYYADSVKGRFTISRDNAKNTVYLQMNSLKPEDTAVYYCAADRWYTRTGFDYWGQGTQVTVSS | low polyreactivity
24 | QVQLVESGGGLVQAGGSLRLSCAASGFIFTPNAMGWYRQAPGKERELVATISWRGTGTYYADSVKGRFTISRDTAKNTVYLQMNSLNPVDTAVYYCAVRFYSFHYYRIYTYSVTYDYWGQGTQVTVSS | high polyreactivity
25 | KVQLVESGGGLVQAGGSLRLSCAASGFTFLRYAMGGYRQAPGKERELVAAIRFSGGSTYYADSVKGRFTISRDNAKNNVYLQMNSLKPEDTAVYYCAAYIRSYGYDYWGQGTKVTVSS | high polyreactivity
26 | QVQLVESGGGLVQAGGSLRLSCAASGITFYKNVMGWYRQAPGKERELVAAISSSGGSTYYADSVKGRFTISRDNAKNTVYLQMNSLKPEDTAVYYCAADDPLYTPYEFDYWGQGTQVTVSS | low polyreactivity
27 | QVQLVESGGGLVQAGGSLRLSCAASGFTFGYYAKGWYRQAPGKERELVAGISRGGRTNYADSVKGRFTISRDNAKNTVYLQMNSLKPEDTAVYYCAKDTYYPSSRYNRYYYWGQGSQVTVSS | high polyreactivity
28 | QVQQVESGGGLVQAGGSLRLSCADSGRTFTLYAMGWYRQAPGKERELVAAITWRGGRTYYADSVKGRFTISRDNAKNTVYFQMNSLKPEVTEVYYCAARKYSPQLDRYGYWGQGTQVTVSS | high polyreactivity
29 | QVQLVESGGGLVQAGGSLRLSCAASGRIFDYYAMAWYRQAPGKERELVSAISSNGVSTYYADSVKGRFTISRDNPKNTVYLQMNSLKPEDTAVYYCAADPTRHSSFPQYDSWGQGTQVTVSS | low polyreactivity
30 | QVQLVDSGGGLVQAGGSLRLSCAASGLIFKLNAMGWYRQAPGKERELVAAIRASTGSTYYADSVKGRFTISRDNAKNTVYLQMNSLKPEDTADYYCAVRLRWYFFLMDYWGQGTQVTVSS | high polyreactivity
31 | QVQLVESGGGLVQAGGSLRLSCAASGSIFYYNAMGWYRQAPGKERELVAVISYRSGRTSYADSVKGRFTISRDNAKNTVYLQMNSLKPEDTAVYYCIAKPAVSFSRHYYRYDYWGQGTQVTVSS | high polyreactivity
32 | QVQLVESGGGLVQAGGSLRLRCAASGRIFVYNAMGWYRQAPGKERELVAAISRSGSSTYYADSVKGRFTISRDNAKNTVYLQMYSLKPEDTSVYYCAARTFSIAYYKYGYWGQGTHVTVSS | high polyreactivity
33 | QVQLVESGGGLVQAGGSLRLSCAASGRTFRYYDMGWYRQAPGKEREFVAAITWRGGSTYYADSVKGRFTISRDNAKNTVYLQMNSLKPEDTAVYYCATDSLRLYGGKRDLYYWGQGTQVTVSS | low polyreactivity
34 | QVQLVESGGGLVQAGGSLRLSCAASGRIFKTNAMGWDRQGPGKERELVAGITGRSGSSYYADSVKGRFTISRDIAMNTVYLQMNSLKPEDTAVYYCAAPLYGRYSYGYWGQGNQVTVSS | high polyreactivity
35 | QVQLVESGGGLVQEGGSLRLNCAASGSTFWGNAMGWYRQPPGKDRELVAAISTSDTSTYYADSVKGRFTISRDNAKNTVYLQMNSLKPEDTAVYFCAAEWYYGEKYDYWGQGTQVTVSS | low polyreactivity
36 | QVQLVESGGGLVQAGGSLRLICAASGRIFPFYAMGWYRPEPGKERELVASISWSGGSTYYADSVKGRFTISRDNAKNPVYLQMNSLKPEDTAVFFCAARRWIADPGRIMDYWGQGTQVTVSS | high polyreactivity
37 | QVQLVESGGGLVQAGGSLRLSCAASGRIFYRYAMGWYRQAPGKERELVAAITQSGGSTFYADSVKGRFTISRDNAKNTVYLQMNSLKPEDTAVYYCNRRGPGFYSTRFNYWGQGTQVTVSS | high polyreactivity
38 | QVQLVESGGGLVQAGGSLRLSCAASGSTFYYNAMGWYRQAPGKEREFVAAITYTGGSTDYADSVKGRFTISRDNAKNTVYLQMNSLKPEDTAVYYCAKGTYGYISTWYDYWGQGTQVTVSS | low polyreactivity
39 | QVQLVESGGGLVQEGGSLRLSCAASGRTFADYTMGWYRQAPGKERELVAAISFSGGSTYYEDSVKGRFTISRDNAKNTVYLQMNSLKPEDTAFYYCAAGHKRRAPRYYYWGQGTQVTVSS | high polyreactivity
40 | QVQLVESGGGLVQAGGSLSLTCAASGRTFESNAMGWYRQAPGKERELVAVITSGGITNYTDSVKGRFTISRDNAKNTVYLQLNSLKPVDTAVYYCEFYYWGQGTQVTVSS | low polyreactivity
41 | QVQLVETGGGLVQAGGSLRLSCASSGITFYRYGKGRYRQAPGKERELVAAITYNGGGTYYADSVKGRFTISRDNAKNTVYLQMNSLKPEDTAVYYCATLRPYAYPQYDSWGQGTQVTVSS | high polyreactivity
42 | QVQLVESGGGLVQAGGSLRLSCAASGITFTWYGMGWYRQAPGKERELVAAISLTGARTYYADSVKGRFTISRDNAKNTVYLQMNSLKPEDTAVYYCNARPQGRGGTYLPRYDYWGQGTQVTVSS | high polyreactivity
43 | QVQLVVSGGGLVQAGGSLRLSCAASGSIFVSNAMGWYRQAPGKEREFVAAITGSGGSTYYADSVKGRFPISRDNAKNTVYLQMNSLKPEDTAVYYCNAGLIHFYAGNYDLYDYWGQGTQVTVSS | low polyreactivity
